Test results published in patent publication US20190360025A1.

Assays:
[1] = molecular target: tumor necrosis factor alpha (TNF-α), R&D Systems 210-TA-005 (UniProt P01375); test: c-PLA 1X probes, human plasma; TNF-α 1.00E-08 M
[2] = molecular target: tumor necrosis factor alpha (TNF-α), R&D Systems 210-TA-005 (UniProt P01375); test: t-PLA 10X probes, human plasma; TNF-α 1.00E-13 M
[3] = molecular target: tumor necrosis factor alpha (TNF-α), R&D Systems 210-TA-005 (UniProt P01375); test: c-PLA 1X probes, buffer; TNF-α 5.00E-07 M
[4] = molecular target: tumor necrosis factor alpha (TNF-α), R&D Systems 210-TA-005 (UniProt P01375); test: t-PLA 10X probes, buffer; TNF-α 5.00E-07 M
[5] = molecular target: tumor necrosis factor alpha (TNF-α), R&D Systems 210-TA-005 (UniProt P01375); test: t-PLA, buffer; TNF-α 1.00E-09 M
[6] = molecular target: vascular endothelial growth factor (VEGF), R&D Systems 293-VE-010 (human) (UniProt P15692); test: c-PLA, human plasma; VEGF 1.00E-09 M
UniProt P15692, sequence (P15692 other isoform, or with tags, fused parts or gaps limits assumed): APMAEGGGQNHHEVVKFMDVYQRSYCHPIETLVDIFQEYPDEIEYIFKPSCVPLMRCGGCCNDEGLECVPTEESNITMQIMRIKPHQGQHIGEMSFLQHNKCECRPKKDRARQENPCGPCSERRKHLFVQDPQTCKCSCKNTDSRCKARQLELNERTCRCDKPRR

[7] = molecular target: vascular endothelial growth factor (VEGF), R&D Systems 293-VE-010 (human) (UniProt P15692); test: c-PLA with preamplification; VEGF 1.00E-11 M
[8] = molecular target: vascular endothelial growth factor (VEGF), R&D Systems 293-VE-010 (human) (UniProt P15692); test: t-PLA with preamplification; VEGF 1.00E-09 M
[9] = molecular target: vascular endothelial growth factor (VEGF), R&D Systems 293-VE-010 (human) (UniProt P15692); test: c-PLA with preamplification; VEGF 1.00E-10 M

UniProt P01375, sequence (P01375 77-233 limits assumed): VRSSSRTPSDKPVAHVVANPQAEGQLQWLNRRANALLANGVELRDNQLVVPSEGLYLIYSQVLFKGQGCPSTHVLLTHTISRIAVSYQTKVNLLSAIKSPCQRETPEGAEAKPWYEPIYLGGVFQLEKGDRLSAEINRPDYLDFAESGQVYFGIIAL

| Counts [6] | SBR [6] | Counts [7] | SBR [7] | Counts [8] | SBR [8] | Counts [9] | SBR [9] | Substance | Counts [1] | SBR [1] | Counts [2] | SBR [2] | Counts [3] | SBR [3] | Counts [4] | SBR [4] | Counts [5] | SBR [5] |
| --- | --- | --- | --- | --- | --- | --- | --- | --- | --- | --- | --- | --- | --- | --- | --- | --- | --- | --- |
| – | – | – | – | – | – | – | – | affinity-purified polyclonal anti-TNF-α antibody (R&D Systems AF-210-NA) | 4770 | 63 | 1.36e+07 | 1.2 | 33000 | 2070 | 2.24e+09 | 392 | 1.98e+07 | 116 |
| 40500 | 156 | 4.88e+06 | 82 | 1.19e+09 | 6740 | 6.02e+07 | 1010 | affinity-purified polyclonal anti-VEGF antibody (R&D Systems AF-293-NA) | – | – | – | – | – | – | – | – | – | – |
